Patent publication US20160304584, “MAFB MUTANTS AND USES THEREOF” (INSERM (INSTITUT NATIONAL DE LA SANTÉ ET DE LA …, published 2016)

Experiments:
[1] = target: MafB (V277N)/c-Fos heterodimer (UniProt P54841;P01101 P54841:211-305,P01101:138-200, MafB V277N); test: EMSA; binding unchanged versus wt; conditions: label: 32P
Experimental: (§1) Double-stranded synthetic oligonucleotides corresponding to the T-MARE(a) ([…]) (SEQ ID NO:5), to T-MARE(beta) ([…]) (SEQ ID NO:6) or to T-MARE(y) ([…]) (SEQ ID NO:7) sites were incubated with Klenow fragment DNA polymerase in the presence of [α³²P][…] and purified on Qiaquick Spin Columns (Qiagen). Increasing amount (0.25 to 64 pmol) of recombinant c-Fos and recombinant protein (4 pmol) of MafB (wt) or MafB (E269R) and MafB (V277N) mutants were incubated with 0.05 ng of probe in 20 μL of binding reaction buffer (20 mM Tris-HCl (pH 7.5), 100 mM KCl, 0.1 mM EDTA, 5% glycerol, 0.1% Triton X-100, 0.02% BSA, […] poly d[I-C]) for 20 min. Complexes formed were resolved on a 6% polyacrylamide (acrylamide/bisacrylamide ratio, 29:1) non-denaturating gel (Bio-Rad) in 0.5% Tris-glycine. Gels were dried and autoradiographed at −80° C.

[2] = target: T1, MafB (wt)/c-Fos heterodimer (UniProt P54841;P01101 P54841:211-305,P01101:138-200); test: EMSA; strongly preferred over homodimer; conditions: label: 32P
Experimental: as §1

[3] = target: MafB (E269R)/c-Fos heterodimer (UniProt P54841;P01101 P54841:211-305,P01101:138-200, MafB E269R); test: EMSA; exclusive heterodimer even at residual c-Fos; conditions: label: 32P
Experimental: as §1

[4] = target: T1, MafB (wt)/c-Fos heterodimer; test: EMSA; no significant heterodimer detected; conditions: label: 32P
Experimental: as §1

MafB (wt) homodimer [5] = target: T2, MafB (wt) homodimer (UniProt P54841 SEQ:211-305); test: EMSA; only homodimer bound; conditions: chain copies: 2; label: 32P
Experimental: as §1

MafB (V277N) homodimer = MafB (V277N) homodimer (UniProt P54841 SEQ:211-305, V277N); test: EMSA; no enhanced site selection compared with wt; conditions: chain copies: 2; label: 32P
Experimental: as §1

[6] = target: MafB (E269R) full-length with c-Fos (UniProt P54841;P01101 P54841:1-323,P01101:1-380, MafB E269R); test: cell_activity; luciferase, HEK293, with c-Fos
Experimental: HEK293 cells were grown in Dulbecco's modified eagle's medium supplemented with 10% fetal bovine serum in six-well plates to reach 60-80% confluence at the time of transfection. DNA was transfected by calcium phosphate precipitation procedure as previously described (Sieweke et al., 1996). pTK81 luciferase reporter constructs (200 ng) (Promega) containing three multimerized T-MARE(alpha) ([…] CA […]), T-MARE(beta) ([…] CA […]), or T-MARE (y) ([…] […]) were cotransfected with 200 ng of Rc/CMV (Invitrogen) constructs driving the expression of wt and mutant full-length MafB with or without 200 ng of Rc/CMV construct driving the expression of c-Fos or no transgene (vector control). Assays were performed in duplicate. The transfection efficiency was normalized by assaying for β-galactosidase activity from a cotransfected CVM-LacZ construct, and luciferase activity was analyzed as previously described (Sieweke et al., 1996). […] The transfection efficiency was normalized, by assaying for β-galactosidase activity from a cotransfected CVM-LacZ construct, and luciferase activity was analyzed using a dual-luciferase reporter assay system (Promega, Cat: E1910) according to the manufacturer's recommendations.

MafB (wt) homodimer [7] = target: T2, MafB (wt) homodimer; test: EMSA; comparable to heterodimer at equimolar c-Fos; favoured with excess MafB; conditions: chain copies: 2; label: 32P
Experimental: as §1

[8] = target: T1, MafB (wt)/c-Fos heterodimer; test: EMSA; comparable to homodimer at equimolar ratio; favoured with excess c-Fos; conditions: label: 32P
Experimental: as §1

[9] = target: MafB (wt) fragment 211-305 C298S, homodimer (Mus musculus, UniProt P54841 SEQ:211-305, C298S); test: structure; 2.9 A crystal structure; 50 mM MgCl2 in complex buffer; conditions: chain copies: 2
Experimental: The C-terminal region of MafB from Mus musculus (residues 211-305, C298S) was purified as previously described (Textor et al., 2007). Homodimeric MafB₂ complexes were dialyzed overnight into 30 mM Tris-HCl (pH 7.3), 80 mM NaCl, 50 mM MgCl₂ and 3 mM β-mercaptoethanol at room temperature in the presence of an oligonucleotide encompassing the T-MARE-binding site (forward: […] (SEQ ID NO:3); reverse: […] (SEQ ID NO:4), METABION). The protein-DNA complex was further purified by size exclusion chromatography on a Superdex-75 (16/60) column (GE), equilibrated with the dialysis buffer. The pooled peak fractions corresponding to the (MafB)₂/T-MARE complex were analyzed by SDS-PAGE and native PAGE gels and concentrated to 5 mg/mL, using a centrifugal concentrator with a polyethersulfone membrane with a 10,000 MWCO (VIVASPIN, Sartorius Stedim Biotech). Crystallization drops of 400 nL volume, using a 1:1 protein/mother liquor ratio, were set up in 96-well sitting-drop plates and allowed to equilibrate at 19° C. Diffracting crystals grew in the presence of 0.1 M Na-citrate (pH 5.0), 15% [w/v] PEG-4000, 5% [v/v] PEG-400, and 0.1 M MgCl₂.

T1 sequence (P54841 211-305, chain 1 of 2): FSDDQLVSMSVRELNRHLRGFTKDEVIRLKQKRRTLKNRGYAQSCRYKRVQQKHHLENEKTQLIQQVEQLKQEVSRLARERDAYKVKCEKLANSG
T1 sequence (P01101 138-200, chain 2 of 2): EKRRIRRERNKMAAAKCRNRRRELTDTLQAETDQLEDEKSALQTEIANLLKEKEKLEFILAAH
T2 sequence (P54841 211-305): as the sequence (P54841 211-305, chain 1 of 2) above
Chain of MafB (E269R)/c-Fos heterodimer (P54841 211-305 E269R, chain 1 of 2): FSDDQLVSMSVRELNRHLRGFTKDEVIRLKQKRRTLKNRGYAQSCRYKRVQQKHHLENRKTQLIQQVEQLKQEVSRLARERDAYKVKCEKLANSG
Chain of MafB (E269R)/c-Fos heterodimer (P01101 138-200, stated change not applied, chain 2 of 2): as the sequence (P01101 138-200, chain 2 of 2) above
Chain of MafB (E269R) full-length with c-Fos (P54841 whole entry E269R, chain 1 of 2): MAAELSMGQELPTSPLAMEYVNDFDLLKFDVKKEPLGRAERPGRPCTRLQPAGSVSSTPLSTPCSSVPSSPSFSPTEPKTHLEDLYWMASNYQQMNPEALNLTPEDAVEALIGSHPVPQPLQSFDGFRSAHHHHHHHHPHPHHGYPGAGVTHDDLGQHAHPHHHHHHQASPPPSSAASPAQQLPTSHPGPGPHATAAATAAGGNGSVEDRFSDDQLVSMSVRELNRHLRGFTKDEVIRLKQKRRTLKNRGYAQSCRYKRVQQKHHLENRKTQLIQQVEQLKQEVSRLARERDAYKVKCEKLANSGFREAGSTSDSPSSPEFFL
Chain of MafB (E269R) full-length with c-Fos (P01101 whole entry, stated change not applied, chain 2 of 2): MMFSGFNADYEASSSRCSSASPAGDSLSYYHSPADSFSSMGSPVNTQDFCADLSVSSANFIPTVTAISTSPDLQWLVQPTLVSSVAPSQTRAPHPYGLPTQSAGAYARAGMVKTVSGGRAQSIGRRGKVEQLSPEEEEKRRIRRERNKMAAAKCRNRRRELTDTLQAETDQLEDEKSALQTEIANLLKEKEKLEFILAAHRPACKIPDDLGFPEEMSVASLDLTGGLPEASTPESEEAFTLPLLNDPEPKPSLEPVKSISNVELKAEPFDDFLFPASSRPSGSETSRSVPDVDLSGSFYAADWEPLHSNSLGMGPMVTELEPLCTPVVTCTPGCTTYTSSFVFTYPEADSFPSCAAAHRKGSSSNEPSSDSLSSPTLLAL
Chain of MafB (V277N)/c-Fos heterodimer (P54841 211-305 V277N, chain 1 of 2): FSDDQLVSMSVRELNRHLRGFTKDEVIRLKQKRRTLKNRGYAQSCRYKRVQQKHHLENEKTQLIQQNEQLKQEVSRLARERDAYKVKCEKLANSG
Chain of MafB (V277N)/c-Fos heterodimer (P01101 138-200, stated change not applied, chain 2 of 2): as the sequence (P01101 138-200, chain 2 of 2) above
Chain of MafB (V277N) homodimer (P54841 211-305 V277N): as the sequence (P54841 211-305 V277N, chain 1 of 2) above
Chain of MafB (wt) fragment 211-305 C298S, homodimer (P54841 211-305 C298S): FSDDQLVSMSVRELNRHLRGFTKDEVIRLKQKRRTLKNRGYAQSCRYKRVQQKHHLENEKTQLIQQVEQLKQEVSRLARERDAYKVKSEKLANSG

B1: T-MARE(beta) (dsDNA)
DNA 1: TCGTCCCCTCCTATGAGTCAGCAATTCTC
DNA 2: GAGAATTGCTGACTCATAGGAGGGGACGA
[1]
  binding result: binds
[2]
  binding result: binds
[3]
  binding result: binds

B2: T-MARE(gamma) (dsDNA)
DNA 1: TCGTCCCTTATGCCTACTAGGCAATTCTC
DNA 2: GAGAATTGCCTAGTAGGCATAAGGGACGA
[4]
  binding result: no binding
MafB (wt) homodimer [5]
  binding result: binds
MafB (V277N) homodimer
  binding result: binds

B3: T-MARE(beta) x3 reporter (dsDNA)
DNA 1: TCGACCTCCCCTCCTATGAGTCAGCAATTCTCTCGAGCTCCCCTCCTATGAGTCAGCAATTCTCTCGAGCTCCCCTCCTATGAGTCAGCAATTCTCGTCGACCC
DNA 2: GGGTCGACGAGAATTGCTGACTCATAGGAGGGGAGCTCGAGAGAATTGCTGACTCATAGGAGGGGAGCTCGAGAGAATTGCTGACTCATAGGAGGGGAGGTCGA
[6]
  activity: 5 fold vs wt

B4: T-MARE(alpha) (dsDNA)
DNA 1: TCGTCCCTTATGCTGACTCAGCAATTCTC
DNA 2: GAGAATTGCTGAGTCAGCATAAGGGACGA
MafB (wt) homodimer [7]
  binding result: binds
[8]
  binding result: binds

B5: T-MARE 20-bp (dsDNA)
DNA 1: TAATTGCTGACTCAGCAATT
DNA 2: TAATTGCTGAGTCAGCAATT
[9]
  binding result: binds
